Laboratory results as given in patent publication US6710030B1, “Contortrostain (CN) and methods for its use in preventing metastasis and other conditions” (University of Southern California, priority 1993, dated 2004).
Like-named read-outs stand apart in the source and are kept apart here.

What was measured:
[1] = molecular target: purified (GP)IIb/IIIa (Homo sapiens, UniProt P05106+P08514); assay: Fibrinogen-(GP)IIb/IIIa ELISA; type: binding
Source text: Several lines of evidence indicate that CN inhibits platelet aggregation by binding specifically to the (GP)IIb/IIIa integrin receptor. […] Additionally, the partial amino acid sequence of CN indicates considerable similarity with other disintegrins known to bind to (GP)IIb/IIIa. Finally, CN blocks 7E3 binding to (GP)IIb/IIIa. 7E3 is a murine monoclonal antibody that specifically binds to (GP)IIb/IIIa, thereby inhibiting human and canine platelet aggregation [Coller, B. S. et al., J. Clin. Invest. 72:325 (1983)].

[2] = test system: canine platelets; settings: cited from earlier work
[3] = test system: human melanoma M24 met cells; assay: CN binding to human melanoma M24 met cells
Source text: The compositions of the present invention also have utility in inhibiting metastasis in melanoma, carcinoma and sarcoma patients. […] Thus, methods and compositions for preventing metastases in melanoma, carcinoma and sarcoma patients are also contemplated as within the scope of the present invention.

[4] = test system: T24 cells; assay: Phosphotyrosine immunoblot, T24 cells; type: cell-based, human
Method: Cell culture, preparation and stimulation—T24 cells were maintained in RPMI 1640 medium containing 5% fetal bovine serum, and MDA-MB-435 and 293 cells were maintained in Dulbecco's modified Eagle's medium with 10% serum at 37° C. in 5% CO2. Cells were washed with phosphate-buffered saline (PBS) and starved in the appropriate serum-free medium for 6 h at 37° C. Cells were detached by brief treatment with 0.05% trypsin/0.02% EDTA in PBS and collected by centrifugation, resuspended in soybean trypsin inhibitor (1 mg/ml in serum-free medium), and washed in 2% bovine serum albumin/serum-free medium. Cells were maintained in suspension for 1 h in 2% bovine serum albumin/serum-free medium at 37° C. with end-over-end agitation. Quiescent cells (3×10^6/ml) were treated with disintegrins or other reagents while in suspension, or were allowed to adhere to Matrigel (Becton Dickinson, Bedford, Mass.) diluted 1:100 with serum-free medium during treatment.
Lysate preparation and immunoprecipitation—Suspended and adherent cells were washed twice with cold PBS and lysed in cold lysis buffer (50 mM Tris, pH 8.0, 150 mM NaCl, 1% Nonidet P-40, 0.5% deoxycholate, 0.1% SDS, protease inhibitor cocktail, 1 mM sodium pyrophosphate, 1 mM sodium orthovanadate, 50 mM sodium fluoride). After 10-15 min incubation on ice, insoluble material was removed by centrifugation at 14,000 RPM in a microcentrifuge for 15 min. Supernatants were collected and total protein concentrations standardized by the BCA protein assay (Pierce, Rockford, Ill.). Immunoprecipitation was carried out by incubating whole cell lysates (200 μg total protein) with 1.25 μg anti-FAK or anti-CAS mAb 4-6 h at 4° C. followed by 20 μl protein G-agarose overnight at 4° C. Immunoprecipitates were washed 4 times in lysis buffer without inhibitors and dissociated by adding SDS-PAGE sample buffer and boiling 5 min. Whole cell lysates (30 μg total protein) or immunoprecipitates were resolved by 7.5% SDS-polyacrylamide gel electrophoresis and transferred to nitrocellulose membranes. […]

[5] = test system: human fibrosarcoma (HT-1080) cells; settings: cited from earlier work

B1: contortrostatin (protein)
chain: DAPANPCCDAATCKLTTGSQCADGLCCDQCKFMKEGTVCRRARGDDLDDYCNGISAGCPRNPFHA
**Q.** Which results are given for B1?
**A.** (GP)IIb/IIIa binding to immobilized fibrinogen [1]: effectively blocks (GP)IIb/IIIa binding; 50% inhibition (IC50) of platelet aggregation, canine platelets [2]: 2.2 mg/L; number of sites, high affinity site [3]: 96,000 (±39,000) sites per cell; number of sites, lower affinity site [3]: 480,000 (±90,000) sites per cell; Kd ([3]; read-out: Kd, lower affinity site): 0.041 µM; Kd ([3]; read-out: dissociation constant (Kd), high affinity site): 0.0011 µM; tyrosine phosphorylation in cells adherent to Matrigel [4]: significant additional increase; tyrosine phosphorylation at high concentration ([4]; 1000 nM): reduced levels of tyrosine phosphorylation; tyrosine phosphorylation of 120-140 kDa proteins ([4]; suspended cells): also observed; Inhibition of HT1080 cell binding to fibronectin ([5]; CN at 1 μg/ml): 89%; Inhibition of HT1080 cell binding to fibronectin ([5]; CN at 5 μg/ml): 85%
